IntAct's records for PubMed 18606998

B1: Transient receptor potential cation channel subfamily V member 5 (Oryctolagus cuniculus (Rabbit)), Q9XSM3 (parent)
chain: MGACPPKAKGPWAQLQKLLISWPVGEQDWEQYRDRVNMLQQERIRDSPLLQAAKENDLRLLKILLLNQSCDFQQRGAVGETALHVAALYDNLEAATLLMEAAPELAKEPALCEPFVGQTALHIAVMNQNLNLVRALLARGASVSARATGAAFRRSPHNLIYYGEHPLSFAACVGSEEIVRLLIEHGADIRAQDSLGNTVLHILILQPNKTFACQMYNLLLSYDEHSDHLQSLELVPNHQGLTPFKLAGVEGNTVMFQHLMQKRKHVQWTCGPLTSTLYDLTEIDSWGEELSFLELVVSSKKREARQILEQTPVKELVSFKWKKYGRPYFCVLASLYILYMICFTTCCIYRPLKLRDDNRTDPRDITILQQKLLQEAYVTHQDNIRLVGELVTVTGAVIILLLEIPDIFRVGASRYFGQTILGGPFHVIIITYASLVLLTMVMRLTNMNGEVVPLSFALVLGWCSVMYFARGFQMLGPFTIMIQKMIFGDLMRFCWLMAVVILGFASAFHITFQTEDPNNLGEFSDYPTALFSTFELFLTIIDGPANYSVDLPFMYCITYAAFAIIATLLMLNLFIAMMGDTHWRVAQERDELWRAQVVATTVMLERKMPRFLWPRSGICGYEYGLGDRWFLRVENHHDQNPLRVLRYVEAFKCSDKEDGQEQLSEKRPSTVESGMLSRASVAFQTPSLSRTTSQSSNSHRGWEILRRNTLGHLNLGLDLGEGDGEEVYHF

Variants of: B1
Conditions: with leg1_human LGALS1, P09382
Sequence of leg1_human LGALS1, P09382 (P09382 whole entry): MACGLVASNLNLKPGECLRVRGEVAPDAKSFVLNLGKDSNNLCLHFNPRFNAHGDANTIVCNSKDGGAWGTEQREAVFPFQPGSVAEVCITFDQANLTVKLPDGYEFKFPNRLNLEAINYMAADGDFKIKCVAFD

Variant | effect of a mutation on the interaction
N358Q | disrupting interaction
